Patent US20210054097A1 (Novo Nordisk, published 2021)
Ends that are not written are not given here.

Molecular target: T1, FX activation peptide 12-mer DPTENPFDLLDF (human)
T1 peptide: DPTENPFDLLDF-biotin
Experiment: peptide ELISA
In short: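 Nanobodies (FLAG-tagged) or IgG antibodies, 2 μg/mL, incubated 1 h on C-terminally biotinylated peptide captured via streptavidin, washing buffer pH 8.60 containing CaCl₂ and Tween 20. Read-out: HRP-conjugated secondary antibody with TMB colour development.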

B1: Nb 729A04 (VHH)
VHH: EVQLVESGGGVVQPGGSLRLSCAASGFTFSDYAMSWVRQAPGKGLEWVSGITSGGGRTYYADSVKGRFTISRDNSKNTLYLQMNSLRPEDTALYYCAAVRTLGLRGSYDYWGQGTLVTVSS
notes: monovalent Nanobody; not shown: C-terminal FLAG3 and HIS6 tag
ELISA signal relative to background: 4.03

B2: Nb 501A02 (VHH)
VHH: EVQLVESGGGLVQPGGSLRLSCAASGFTFSNYEMSWVRQAPGKGLEWVSDIGSGGGVSTYYADSVKGRFTISRDNAKNTLYLQMNSLKPEDTAMYYCARGWTYGSDGMDYWGKGTLVTVSS
notes: monovalent control Nanobody; also called control Nanobody; not shown: C-terminal FLAG3 and HIS6 tag
ELISA signal relative to background: 0.88 | binding result: no binding (tested: 2 µg/mL)

B3: Nb 701B09 (VHH)
VHH: EVQLVESGGGVVQPGGSLRLSCAASGRTFSTYAMGWFRQAPGKEREFVAAISWSGSRTYYADSVKGRFTISRDNSKNTVYLQMNSLRPEDTALYYCAADATPANGELDYWGQGTLVTVSS
notes: monovalent Nanobody; also called Nb 701609; not shown: C-terminal FLAG3 and HIS6 tag
ELISA signal relative to background: 2.87

B4: Nb 702C12 (VHH)
VHH: EVQLVESGGGVVQPGGSLRLSCVASGRTFSRYAMGWFRQAPGKEREFVAAISRRGGSTNYADSVKGRFTISRDNSKNTVYLQMNSLRPEDTALYYCAADYSSGDGYLDYWGQGTLVTVSS
notes: as for B1
ELISA signal relative to background: 4.16
